# In patent publication US20260184782A1 (TWIST BIOSCIENCE, published 2026):
# T1: recombinant human TIGIT (human, UniProt Q495A1 22-141, limits assumed)
# T1 construct: recombinant human TIGIT used in Carterra SPR; also called hTIGIT
# T1 sequence (looked up): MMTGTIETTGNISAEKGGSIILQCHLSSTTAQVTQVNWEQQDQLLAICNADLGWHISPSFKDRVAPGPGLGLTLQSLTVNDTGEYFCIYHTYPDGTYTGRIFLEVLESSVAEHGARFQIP
# T2: human TIGIT-Fc (human, UniProt Q495A1 22-141, limits assumed)
# T2 construct: not shown: Fc; not described
# T2 sequence (looked up): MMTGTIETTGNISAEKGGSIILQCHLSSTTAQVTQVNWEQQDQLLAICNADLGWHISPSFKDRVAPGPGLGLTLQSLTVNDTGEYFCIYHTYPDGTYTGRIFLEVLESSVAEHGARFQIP
# What was measured:
# recombinant human TIGIT = target: T1, recombinant human TIGIT; assay: SPR Carterra, average
# Method: Binding affinities of VHH-Fc proteins to recombinant human TIGIT were measured by SPR using a Carterra instrument (Table 10A). […] Average values reported from measurements from 1-2 samples.
# human TIGIT-Fc = target: T2, human TIGIT-Fc; assay: CD155 competition ELISA, single point; further: test concentration or dose not given here
# Method: TIGIT/CD155 inhibition of VHH-Fcs were assessed using an ELISA assay (Table 10B). Briefly, human TIGIT-Fc was coated on a plate & then incubated with VHH-Fcs and human CD155-biotin. Bound CD155-biotin was detected using a streptavidin-HRP conjugate visualized with TMB. Strong inhibitors from the single point screen were titrated to determine EC50 (Table 10C).
Kd (recombinant human TIGIT) [nM],koff (recombinant human TIGIT) [s⁻¹],kon (recombinant human TIGIT) [M⁻¹ s⁻¹],OD (450 nm) (human TIGIT-Fc) [OD],Binder
393,0.168,428000,–,"TIGIT-SC181 (Fc fusion, VHH-Fc fusion in assay) VHH: EVQLVESGGGLVQPGGSLRLSCAASGFTLSSNWMGWFRQAPGKEREFVASVLRGGYTWYADSVKGRFTISADNSKNTAYLQMNSLKPEDTAVYYCARDAYYYGLWGQGTLVTVSS"
625,0.0934,93800,–,"TIGIT-SC202 (Fc fusion, VHH-Fc fusion in assay) VHH: EVQLVESGGGLVQPGGSLRLSCAASGFTFSPSWMGWFRQAPGKEREWVASVLRGGYTWYADSVKGRFTISADNSKNTAYLQMNSLKPEDTAVYYCTTDGGYSGIVGFAWGQGTLVTVSS"
340,0.00279,48600,–,"TIGIT-SC177 (Fc fusion, VHH-Fc fusion in assay) VHH: EVQLVESGGGLVQPGGSLRLSCAASGFTFSPSWMGWFRQAPGKEREWVASVLRGGYTWYADSVKGRFTISADNSKNTAYLQMNSLKPEDTAVYYCATDRGPAMVFNLWGQGTLVTVSS"
–,–,–,0.701,"TIGIT-SC156 (Fc fusion, VHH-Fc) VHH: EVQLVESGGGLVQPGGSLRLSCAASGNTFSGGFMGWFRQAPGKEREWVASVLRGGYTWYADSVKGRFTISADNSKNTAYLQMNSLKPEDTAVYYCTTEGYDFWSGYYDYWGQGTLVTVSS"
–,–,–,0.423,"TIGIT-SC162 (Fc fusion, VHH-Fc) VHH: EVQLVESGGGLVQPGGSLRLSCAASGNTFSGGFMGWFRQAPGKEREWVASVLRGGYTWYADSVKGRFTISADNSKNTAYLQMNSLKPEDTAVYYCTTDRAIGVRPLFDHWGQGTLVTVSS"
–,–,–,0.748,"TIGIT-SC3 (Fc fusion, VHH-Fc) VHH: EVQLVESGGGLVQPGGSLRLSCAASGTFQRINAMGWFRQAPGKEREFVSTINWSGSNTYYADSVKGRFTISADNSKNTAYLQMNSLKPEDTAVYYCASSYSSSSGLGDIWGQGTLVTVSS"
–,–,–,0.61,"TIGIT-SC14 (Fc fusion, VHH-Fc) VHH: EVQLVESGGGLVQPGGSLRLSCAASGSISSIHAMGWFRQAPGKEREFVATISRSGVGTFYADSVKGRFTISADNSKNTAYLQMNSLKPEDTAVYYCASSYSSSSGLGDIWGQGTLVTVSS"
321,0.128,399000,–,"TIGIT-SC199 (Fc fusion, VHH-Fc fusion in assay) VHH: EVQLVESGGGLVQPGGSLRLSCAASGFSSAQYAMGWFRQAPGKERELVASIDSEGRTNYADSVKGRFTISADNSKNTAYLQMNSLKPEDTAVYYCTRDGGFDPWGQGTLVTVSS"
–,–,–,0.735,"TIGIT-SC7 (Fc fusion, VHH-Fc) VHH: EVQLVESGGGLVQPGGSLRLSCAASGRSFSMYVMGWFRQAPGKEREGVSFISGSDGSTLYADSVKGRFTISADNSKNTAYLQMNSLKPEDTAVYYCARGSIAARPVFFDYWGQGTLVTVSS"
1320,0.16,121000,–,"TIGIT-SC148 (Fc fusion, VHH-Fc fusion in assay) VHH: EVQLVESGGGLVQPGGSLRLSCAASGDIGSINAMGWFRQAPGKEREFVAGIWRSGNLKAYADSVKGRFTISADNSKNTAYLQMSSLKPEDTAVYYCARGNIVVVPAAFVIWFDPWGQGTLVTVSS"
474,0.239,504000,–,"TIGIT-SC143 (Fc fusion, VHH-Fc fusion in assay) VHH: EVQLVESGGGLVQPGGSLRLSCAASGFTLGYYVMGWFRQAPGKEREFVAAISASGTLRAYADSVEGRFTISADNSKNTAYLQMNSLKPEDTAVYYCARAELGYSYGSVDGYWGQGTLVTVSS"
–,–,–,0.564,"TIGIT-SC5 (Fc fusion, VHH-Fc) VHH: EVQLVESGGGLVQPGGSLRLSCAASGFAFGDSWMGWFRQAPGKEREWVASVLRGGYTWYADSVKGRFTISADNSKNTAYLQMNSLKPEDTAVYYCARESEGWFDPWGQGTLVTVSS"
–,–,–,0.5,"TIGIT-SC183 (Fc fusion, VHH-Fc) VHH: EVQLVESGGGLVQPGGSLRLSCAASGFAFGDSWMGWFRQAPGKEREWVASVLRGGYTWYADSVKGRFTISADNSKNTAYLQMNSLKPEDTAVYYCAKDRSYSFDYWGQGTLVTVSS"
–,–,–,0.424,"TIGIT-SC23 (Fc fusion, VHH-Fc) VHH: EVQLVESGGGLVQPGGSLRLSCAASGFTLSSNWMGWFRQAPGKEREWVASVLRGGYTWYADSVKGRFTISADNSKNTAYLQMNSLKPEDTAVYYCARERLGWFDPWGQGTLVTVSS"
–,–,–,0.407,"TIGIT-SC2 (Fc fusion, VHH-Fc) VHH: EVQLVESGGGLVQPGGSLRLSCAASGFTLSSNWMGWFRQAPGKEREMVAAIDWSGGSALYADSVKGRFTISADNSKNTAYLQMNSLKPEDTAVYYCAKDALSNSARFDHWGQGTLVTVSS"
131,0.0715,545000,–,"TIGIT-SC192 (Fc fusion, VHH-Fc fusion in assay) VHH: EVQLVESGGGLVQPGGSLRLSCAASGFTFSVYWMGWFRQAPGKEREFVAAISRSGTLKEYADSVKGRFTISADNSKNTAYLQMNSLKPEDTAVYYCARGSGWPKIHFDYWGQGTLVTVSS"
841,0.178,211000,–,"TIGIT-SC193 (Fc fusion, VHH-Fc fusion in assay) VHH: EVQLVESGGGLVQPGGSLRLSCAASGFTFSDYWMGWFRQAPGKEREFVAAISRSGTLKAYADSVKGRFTISADNSKNTAYLQMNSLKPEDTAVYYCARGSGWPKIHFDYWGQGTLVTVSS"
–,–,–,0.579,"TIGIT-SC4 (Fc fusion, VHH-Fc) VHH: EVQLVESGGGLVQPGGSLRLSCAASGSIDRINAMGWFRQATGKEREWVASVLRGGYTWYADSVKGRFTISADNSKNTAYLQMNSLKPEDTAVYYCARDSYSTSFWFDPWGQGTLVTVSS"
–,–,–,0.649,"TIGIT-SC1 (Fc fusion, VHH-Fc) VHH: EVQLVESGGGLVQPGGSLRLSCAASGFTLNDYAMGWFRQAPGKERELVAWIARYDGSTLYADSVKGRFTISADNSKNTAYLQMNSLKPEDTAVYYCARVDWALNAAPFDYWGQGTLVTVSS"
189,0.0116,61600,–,"TIGIT-SC105 (Fc fusion, VHH-Fc fusion in assay) VHH: EVQLVESGGGLVQPGGSLRLSCAASGFAFSRYGMGWFRQAPGKERELVATIGWSGSSTFYADSVKGRFTISADNSKNTAYLQMNSLKPEDTAVYYCARDGGPYYYGLDVWGQGTLVTVSS"
549,0.027,49200,–,"TIGIT-SC94 (Fc fusion, VHH-Fc fusion in assay) VHH: EVQLVESGGGLVQPGGSLRLSCAASGSSFSAYAMGWFRQAPGKEREFVSLINWSSGKTIYADSVKGRFTISADNSKNTAYLQMNSLKPEDTAVYYCARVRIFNHVHRPSYYFDYWGQGTLVTVSS"
1470,0.155,106000,–,"TIGIT-SC152 (Fc fusion, VHH-Fc fusion in assay) VHH: EVQLVESGGGLVQPGGNLRLSCAASGSTFSKHHAMGWFRQAPGKEREFVAGIIRSGTLKAYADSVKGRFTISADNSKNTAYLQMNSLKPEDTAVYYCTRGRAARHNLWYFDLWGQGTLVTVSS"
–,–,–,0.349,"TIGIT-SC60 (Fc fusion, VHH-Fc) VHH: EVQLVESGGGLVQPGGSLRLSCAASGFTFSPSWMGWFRQAPGKEREWVASVLRGGYTWYADSVKGRFTISADNSKNTAYLQMNSLKPEDTAVYYCARDDLDYWGQGTLVTVSS"
–,–,–,0.524,"TIGIT-SC188 (Fc fusion, VHH-Fc) VHH: EVQLVESGGGLVQPGGSLRLSCAASGNTFSGGFMGWFRQAPGKEREWVASVLRGGYTWYADSVKGRFTISADNSKNTAYLQMNSLKPEDTAVYYCTTDSLPGWGQGTLVTVSS"
–,–,–,0.558,"TIGIT-SC6 (Fc fusion, VHH-Fc) VHH: EVQLVESGGGLVQPGGSLRLSCAASGNTFSGGFMGWFRQAPGKEREWVASVLRGGYTWYADSVKGRFTISADNSKNTAYLQMNSLKPEDTAVYYCAISPVAWHAKFDSWGQGTLVTVSS"
1060,0.24,226000,–,"TIGIT-SC146 (Fc fusion, VHH-Fc fusion in assay) VHH: EVQLVESGGGLVQPGGGLRLSCAASGFTLENNMMGWFRQAPGKEREFVAAISASGTLRAYADSVKGRFTISADNSKNTAYLQMNSLKPEDTAVYYCAKGGQAGPMAFYFDYWGQGTLVTVSS"
–,–,–,0.817,"TIGIT-SC8 (Fc fusion, VHH-Fc) VHH: EVQLVESGGGLVQPGGSLRLSCAASGFAFSSYAMGWFRQAPGKEREFVARITWNGGSAYYADSVKGRFTISADNSKNTAYLQMNSLKPEDTAVYYCAAGATGWFDPWGQGTLVTVSS"
903,0.151,167000,–,"TIGIT-SC141 (Fc fusion, VHH-Fc fusion in assay) VHH: EVQLVESGGGLVQPGGSLRLSCAASGNAFSSSVMGWFRQAPGKEREFVAGIWRSGSLKAYADSVKGRFTISADNSKNTAYLQMNSLRPEDTAVYYCARAYVGMTTVTFDHWGQGTLVTVSS"
–,–,–,0.613,"TIGIT-SC95 (Fc fusion, VHH-Fc) VHH: EVQLVESGGGLVQPGGSLRLSCAASGPTFSTNVMGWFRQAPGKEREFVSSIHWGGSSTVYADSVKGRFTISADNSKNTAYLQMNSLKPEDTAVYYCVTYSAYDFRNAWGQGTLVTVSS"
170,0.005,98700,–,"TIGIT-SC186 (Fc fusion, VHH-Fc fusion in assay) VHH: EVQLVESGGGLVQPGGSLRLSCAASGNTFSGGFMGWFRQAPGKEREYVASVLRGGYTWYADSVKGRFTISADNSKNTTYLQMNSLKPEDTAVYYCTTDRGYNWNYDWGQGTLVTVSS"
